Measured values taken from paper PMC4110284.

Legend:
[1] = molecular target: mutant IgG4 with Pro222 (human); assay: AUC; sedimentation velocity, 40,000 rpm, SEDFIT c(s) analysis with integration of the monomer and dimer peaks; IgG4(Ser222) 0.5-8 mg/ml in PBS-50, PBS-137 and PBS-250 in H2O at 20 °C and in PBS-137 in 2H2O at 6, 20 and 30 °C; IgG4(Pro222) 0.5-2.5 mg/ml in PBS-137 in H2O at 20 °C; pH 7.4; dimer to monomers
[2] = molecular target: wild-type human-mouse chimera IgG4 B72.3 with Ser222 (human); assay: as above

Row | percent dimer [1] [%] | stoichiometry N [1] | Kd [2] [µM] | percent dimer [2] [%] | stoichiometry N [2] | Molecule
1 | 2 to 3 | 2 | – | – | – | mutant IgG4 with Pro222 (antibody)
2 | – | – | 600 to 3000 | 1 to 3 | 2 | wild-type human-mouse chimera IgG4 B72.3 with Ser222 (antibody, V domains shown) VH: QVQLQQSDAELVKPGASVKISCKASGYTFTDHAIHWAKQKPEQGLEWIGYISPGNDDIKYNEKFKGKATLTADKSSSTAYMQLNSLTSEDSAVYFCKRSYYGHWGQGTTLTVSS VL: DIQMTQSPASLSVSVGETVTITCRASENIYSNLAWYQQKQGKSPQLLVYAATNLADGVPSRFSGSGSGTQYSLKINSLQSEDFGSYYCQHFWGTPYTFGGGTRLEIK
